The source of these data is patent publication US20210102192A1 (TWIST BIOSCIENCE, published 2021).

The target of test [1] is T1, Prostaglandin D2 receptor 2 (CRTH2R) (UniProt Q9Y5Y4 1-395).
T1 chain: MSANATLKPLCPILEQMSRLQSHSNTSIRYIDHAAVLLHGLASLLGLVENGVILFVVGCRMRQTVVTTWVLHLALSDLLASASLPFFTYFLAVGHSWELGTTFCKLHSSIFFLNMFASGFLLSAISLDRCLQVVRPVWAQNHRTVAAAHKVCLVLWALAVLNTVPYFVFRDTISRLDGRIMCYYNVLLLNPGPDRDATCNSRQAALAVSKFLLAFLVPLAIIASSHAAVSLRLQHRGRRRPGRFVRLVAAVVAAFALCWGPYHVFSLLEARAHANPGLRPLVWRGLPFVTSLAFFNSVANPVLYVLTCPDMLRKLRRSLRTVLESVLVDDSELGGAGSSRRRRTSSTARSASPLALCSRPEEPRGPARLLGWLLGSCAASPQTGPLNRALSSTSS
Put plainly: FACS binding; CRTH2R-positive cells. Background: Flow cytometry measures light scatter and fluorescence of single cells or particles in a stream.

For test [2], the target named is T1, Prostaglandin D2 receptor 2 (CRTH2R). In words: FACS binding; CHO CRTH2R-positive cells.
Test [3] addresses T2, Prostaglandin D2 receptor 2 (CRTH2R) (human, UniProt Q9Y5Y4 1-395).
T2 sequence: T1 chain
Put plainly: cell-based or functional assay.

B1: CRTH2-41-51 (Fc fusion)
chain: EVQLVESGGGLVQPGGSLRLSCAASGGIFRFNAMGWFRQAPGKERELVAGISGSGGDTYYADSVKGRFTISADNSKNTAYLQMNSLKPEDTAVYYCAAFRGIMRPDWGQGTLVTVSS
In general, EC50 refers to the midpoint of the concentration-response curve. The low end stands for an effect from little substance, the high end for a need for much substance. B1 returned a 50% effective concentration (EC50) in test [1] of 0.181 nM.

B2: CRTH2-50 (antibody, V domains shown)
VH: QVQLVQSGAEVKKPGSSVKVSCKASGGTFSSYALSWVRKAPGQGLEWMGGTIPIFGTVNYAQKFQGRVTITADESTSTAYMELSSLRSEDTAVYYCARANQHFTRVIGQPSPAVPSRGYIYHGYHYYGMDVWGQGTLVTVSS
VL: QSALTQPASVSGSPGQSITISCTGTSSDIGGYNFVSWYQQHPGKAPKLMIYDVSNRPQGVSNRFSGSKSGNTASLTISGLQAEDEADYYCSSYTSSNTYVVFGGGTKLTVL
For B2, the midpoint of the response in test [2], the EC50, lay at 19.6 nM. In addition, in test [3], the “IC50 fold difference of the PGD2 dose response curve (cAMP assay, 100 nM IgG)” value is > 2 fold.
